Assay [1] addresses T1, Murine TNFR2 (mouse, UniProt P25119 23-474).
T1 construct: Expressed on transiently transfected HEK293 cells; also called mouse TNFR2; TNFR2(mu)
T1 sequence: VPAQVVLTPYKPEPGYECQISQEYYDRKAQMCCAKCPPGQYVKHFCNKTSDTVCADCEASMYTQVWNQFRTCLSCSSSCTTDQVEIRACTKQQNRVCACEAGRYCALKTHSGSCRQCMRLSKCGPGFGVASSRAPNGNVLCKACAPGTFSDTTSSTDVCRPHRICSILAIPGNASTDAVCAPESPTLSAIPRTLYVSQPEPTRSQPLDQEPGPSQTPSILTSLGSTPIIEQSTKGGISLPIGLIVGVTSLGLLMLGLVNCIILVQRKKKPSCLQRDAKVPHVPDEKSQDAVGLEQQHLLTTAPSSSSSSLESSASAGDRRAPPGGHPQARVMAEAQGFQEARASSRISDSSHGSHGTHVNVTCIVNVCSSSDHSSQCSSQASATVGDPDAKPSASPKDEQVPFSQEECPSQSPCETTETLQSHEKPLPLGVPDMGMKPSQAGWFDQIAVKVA
Put plainly: equilibrium binding of the GpL fusion protein (label C27-IgG1-LC:GpL) to HEK293 cells transiently transfected with murine TNFR2; empty-vector cells as non-specific binding. The protocol: (§1) FIG. 14—Binding of TNFR2-specific antibodies to human, murine and cynomolgus TNFR2. HEK293 cells were transiently transfected with human, murine and cynomologus TNFR2 or empty vector. Equilibrium binding of the indicated anti-TNFR2 antibody GpL fusion proteins were then determined at 37° C. Binding to empty vector transfected cells was determined to obtain unspecific binding values.
(§2) Affinity (KD-values) of TNFR2-targeting antibodies to human, cynomolgus monkey, and murine TNFR2 was evaluated by cellular equilibrium binding studies. Therefore, HEK293T cells were transiently transfected with human, cynomolgus or mouse TNFR2 encoding expression plasmids or an empty vector control (EV) using the PEI method. […] Cell associated luciferase activity (RLU; relative light units) was detected with LUmo luminometer (anthos Mikrosysteme GmbH, Friesoythe, Germany) directly after adding 1.5 μM of the substrate coelenterazin (Carl Roth, Karlsruhe, Germany).
(§3) The binding properties of anti-TNFR2 antibodies from different clones were assessed. […] Equilibrium binding of the indicated anti-TNFR2 antibody GpL fusion proteins was then determined at 37° C. Binding to empty vector transfected cells was determined to obtain unspecific binding values.

The target of assay [2] is T2, Extracellular domain of TNFR1 with a GPI anchor domain (UniProt P19438 30-211).
T2 construct: extracellular domain; not shown: GPI anchor domain
T2 sequence (looked up): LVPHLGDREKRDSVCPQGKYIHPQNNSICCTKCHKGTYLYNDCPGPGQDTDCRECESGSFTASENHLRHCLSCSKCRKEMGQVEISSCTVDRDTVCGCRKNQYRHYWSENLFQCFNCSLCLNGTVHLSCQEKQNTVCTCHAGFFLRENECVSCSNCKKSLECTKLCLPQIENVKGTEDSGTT
Put plainly: binding of the GpL tagged protein to HEK293 cells transiently transfected with the TNFR1 extracellular domain with GPI anchor; empty-vector cells as non-specific binding. The protocol: (§4) HEK293 cells were transiently transfected with: (i) a TNFR2 expression plasmid; (ii) an expression plasmid encoding the extracellular domain of TNFR1 with a GPI anchor domain; or (iii) empty vector (ev). Next day, the indicated GpL tagged binding molecules were added at the indicated concentration to the cells. After incubation for 1 hour at 37° C., followed by two washes with PBS, the remaining cell bound GpL activity was determined.
(§5) An experiment was performed to illustrate the ability of the binding molecules provided to bind TNFR2, but not TNFR1. HEK293 cells were transiently transfected with: (i) a TNFR2 expression plasmid; (ii) an expression plasmid encoding the extracellular domain of TNFR1 with a GPI anchor domain; or (iii) empty vector (ev). […] The proteins indicated in FIG. 27 were added at the indicated concentration to the HEK293 cells. After incubation for 1 hour at 37° C., followed by two washes with PBS, the remaining cell bound GpL activity was determined.

The target of assay [3] is T3, Human TNFR2 (human, UniProt P20333 23-461).
T3 construct: On cells: HeLa-TNFR2, HT1080-Bcl2-TNFR2, transiently transfected HEK293; endogenous on Kym-1 cells; also called huTNFR2; TNFRSF1B
T3 sequence: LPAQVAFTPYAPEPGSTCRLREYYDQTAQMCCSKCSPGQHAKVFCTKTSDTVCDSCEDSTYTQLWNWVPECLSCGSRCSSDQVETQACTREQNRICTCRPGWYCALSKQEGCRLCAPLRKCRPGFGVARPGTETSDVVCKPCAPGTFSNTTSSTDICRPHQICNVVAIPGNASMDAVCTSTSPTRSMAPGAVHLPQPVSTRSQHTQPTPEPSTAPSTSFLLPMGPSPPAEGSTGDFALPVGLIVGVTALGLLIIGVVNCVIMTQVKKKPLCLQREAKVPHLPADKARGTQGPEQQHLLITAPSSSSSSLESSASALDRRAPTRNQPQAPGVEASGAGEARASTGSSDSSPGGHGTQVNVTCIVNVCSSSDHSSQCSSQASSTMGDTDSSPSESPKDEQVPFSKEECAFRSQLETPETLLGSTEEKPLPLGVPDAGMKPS
Put plainly: binding of the GpL tagged protein to HEK293 cells transiently transfected with TNFR2, 1 h 37 °C; empty-vector cells as non-specific binding. The protocol:
as §4, §5

Assay [4] deals with T1, Murine TNFR2. Put plainly: equilibrium binding of the GpL fusion protein (label C9-IgG1-LC:GpL) to HEK293 cells transiently transfected with murine TNFR2; empty-vector cells as non-specific binding. The protocol:
as §1, §2, §3

Assay [5] addresses T3, Human TNFR2. The assay can be described thus: equilibrium binding of the GpL fusion protein to HeLa-TNFR2 cells, 37 °C; unspecific binding on HeLa cells subtracted; cell-bound luciferase. The method, then: FIG. 11—Binding properties of TNFR2-specific antibodies. (A) Equilibrium binding of the indicated anti-TNFR2 antibody GpL fusion proteins to cell expressed human TNFR2 at 37° C. (B) HeLa-TNFR2 cells were pretreated with the indicated amounts of anti-TNFR2 antibodies or remained untreated. […] Binding of the various constructs to untransfected HeLa cells was analyzed to obtain unspecific binding values.
Affinity of TNFR2-specific antibodies and antibody variants were also evaluated with HeLa cells and HeLa cells stably expressing human TNFR2. HeLa and HeLa-TNFR2 cells were seeded out in 24-well plates. Next day, the cells were challenged with the indicated concentrations of GpL-labelled TNFR2 antibodies for 1 hour at 37° C. To eliminate the unbound antibodies, the cells were washed 10 times with ice-cold PBS. The cells were then scratched and collected in 50 μl of medium (RPMI, 0.5% FCS) and transferred to black 96-well plates for measurement as mentioned above. The specific binding of different TNFR2-specific antibodies/antibody variants was calculated by subtracting the unspecific binding (values obtained from HeLa cells) from total binding (obtained from HeLa-TNFR2). The resulting values were fitted using the non-linear regression analysis option of GraphPad Prism 5.

The target in another assay is T4, Cynomolgus TNFR2 (Macaca fascicularis (cynomolgus monkey), UniProt P20333 26-461 (human entry)).
T4 construct: Expressed on transiently transfected HEK293 cells; also called TNFR2-cyno; monkey TNFR2
T4 chain: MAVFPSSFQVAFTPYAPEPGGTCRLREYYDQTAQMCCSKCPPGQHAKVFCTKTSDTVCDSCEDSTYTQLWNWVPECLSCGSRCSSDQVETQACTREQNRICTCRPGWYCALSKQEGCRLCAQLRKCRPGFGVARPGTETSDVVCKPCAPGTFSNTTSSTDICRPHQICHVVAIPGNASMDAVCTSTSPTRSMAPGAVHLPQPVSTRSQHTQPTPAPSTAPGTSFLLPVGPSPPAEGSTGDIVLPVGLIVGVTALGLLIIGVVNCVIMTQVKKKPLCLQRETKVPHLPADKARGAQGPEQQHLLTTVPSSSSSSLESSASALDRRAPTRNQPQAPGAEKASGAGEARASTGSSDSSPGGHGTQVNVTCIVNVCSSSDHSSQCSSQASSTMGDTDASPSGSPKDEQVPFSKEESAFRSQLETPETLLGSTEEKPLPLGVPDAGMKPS
Put plainly: equilibrium binding of the GpL fusion protein to HEK293 cells transiently transfected with cynomolgus TNFR2, 37 °C; empty-vector cells as non-specific binding. The protocol:
as §1, §2, §3

B1: C27-IgG1(N297A)-LC:GpL (antibody)
light: EVKLVPRQLDYKDDDDKELNIVMTQSPKSLSMSVGERVTLNCKASENVKTYVSWYQQKPEQSPKLLIYGASNRYTGVPDRFTGSGSATDFTLTISSVQAEDLADYHCGQSYSYPFTFGAGTKLERKGSEIKRTVAAPSVFIFPPSDEQLKSGTASVVCLLNNFYPREAKVQWKVDNALQSGNSQESVTEQDSKDSTYSLSSTLTLSKADYEKHKVYACEVTHQGLSSPVTKSFNRGECLEKPTENNEDFNIVAVASNFATTDLDADRGKLPGKKLPLEVLKEMEANARKAGCTRGCLICLSHIKCTPKMKKFIPGRCHTYEGDKESAQGGIGEAIVDIPEIPGFKDLEPMEQFIAQVDLCVDCTTGCLKGLANVQCSDLLKKWLPQRCATFASKIQGQVDKIKGAGGD
heavy: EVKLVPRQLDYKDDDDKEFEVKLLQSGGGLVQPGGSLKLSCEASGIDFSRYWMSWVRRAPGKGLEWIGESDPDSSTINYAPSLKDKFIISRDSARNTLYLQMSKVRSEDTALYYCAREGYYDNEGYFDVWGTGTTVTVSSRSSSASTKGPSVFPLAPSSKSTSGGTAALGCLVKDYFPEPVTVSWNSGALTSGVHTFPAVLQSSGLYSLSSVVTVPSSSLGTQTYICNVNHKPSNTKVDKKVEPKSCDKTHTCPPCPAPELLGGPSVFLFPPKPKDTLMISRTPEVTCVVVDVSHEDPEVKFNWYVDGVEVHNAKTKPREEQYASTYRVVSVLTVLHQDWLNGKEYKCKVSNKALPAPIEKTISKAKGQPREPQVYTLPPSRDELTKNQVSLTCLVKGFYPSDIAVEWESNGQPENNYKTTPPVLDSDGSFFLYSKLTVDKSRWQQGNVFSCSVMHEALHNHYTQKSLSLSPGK
notes: copies: 2 + 2
Turning to B1, the binding result with Murine TNFR2 [1] was “no binding (tested: 1000 ng/ml)”; in assay [2], “no binding (tested: 750 ng/ml)”.

B2: C9-IgG1(N297A)-LC:GpL (antibody)
light: EVKLVPRQLDYKDDDDKELQIVLTQSPAIMSASPGEKVTITCSASSSVSYMHWFQQKPGTSPKLWIYSTSNLASGVPARFSGSGSGTSYSLTISRMEAEDAATYYCQQRSSYPPTFGGGTKLEIKGSEIKRTVAAPSVFIFPPSDEQLKSGTASVVCLLNNFYPREAKVQWKVDNALQSGNSQESVTEQDSKDSTYSLSSTLTLSKADYEKHKVYACEVTHQGLSSPVTKSFNRGECLEKPTENNEDFNIVAVASNFATTDLDADRGKLPGKKLPLEVLKEMEANARKAGCTRGCLICLSHIKCTPKMKKFIPGRCHTYEGDKESAQGGIGEAIVDIPEIPGFKDLEPMEQFIAQVDLCVDCTTGCLKGLANVQCSDLLKKWLPQRCATFASKIQGQVDKIKGAGGD
heavy: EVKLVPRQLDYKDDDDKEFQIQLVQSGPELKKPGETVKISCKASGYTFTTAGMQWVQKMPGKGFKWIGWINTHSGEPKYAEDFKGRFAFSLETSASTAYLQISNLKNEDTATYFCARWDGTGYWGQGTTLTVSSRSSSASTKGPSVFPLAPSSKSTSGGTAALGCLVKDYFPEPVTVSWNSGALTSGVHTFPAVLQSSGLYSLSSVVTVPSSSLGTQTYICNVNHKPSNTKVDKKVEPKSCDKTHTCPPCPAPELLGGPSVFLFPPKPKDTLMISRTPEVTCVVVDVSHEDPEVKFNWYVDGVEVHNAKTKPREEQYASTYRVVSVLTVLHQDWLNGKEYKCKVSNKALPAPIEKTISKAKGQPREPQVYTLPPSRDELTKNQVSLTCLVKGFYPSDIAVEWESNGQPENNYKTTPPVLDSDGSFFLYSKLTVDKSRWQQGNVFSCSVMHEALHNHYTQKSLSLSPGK
notes: copies: 2 + 2
As to B2, the results for the Kd with Human TNFR2 [3], with Human TNFR2 [5] and in the assay with Cynomolgus TNFR2 were 0.13 µg/mL, 0.22 µg/mL and 1.1 µg/mL, respectively. Besides, the binding result with Murine TNFR2 [4] is reported as “no binding (tested: 1500 ng/ml)”; in assay [2] it was “no binding (tested: 750 ng/ml)”. This molecule also displayed a Bmax with Human TNFR2 [5] of 1000 kRLU.

The term Kd denotes the concentration at which binding is half-saturated. Low values mean higher affinity, high ones lower affinity.

These data come from patent US20240190983A1 (JULIUS MAXIMILIANS UNIVERSIT T W RZBURG, published 2024).
